B1: CDC25A (parent)
chain: QLIDPDENKENEAFEFKKPVRPVS

Variants of: B1
Test: protein stability index of a GFP-peptide fusion (GPS, HEK-293T) (PSI 1-6); higher = more stable
Conditions: c terminus: a fixed tail appended
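Also: lentivirally expressed fusions sorted by FACS into six bins by GFP to DsRed ratio, PSI derived from sequencing read proportions per bin multiplied by bin number.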

| Variant | protein stability index |
| --- | --- |
| QLIDPDENKEQEAFEFKKPVRPVS | 4.32 |
| QLIDPDENKEAEAFEFKKPVRPVS | 3.81 |
| QLIDPDENKEMEAFEFKKPVRPVS | 4.25 |
| QLIDPDENKEVEAFEFKKPVRPVS | 4.63 |
| QLIDPDENKEYEAFEFKKPVRPVS | 4.29 |
| QLIDPDENKECEAFEFKKPVRPVS | 4.23 |
| QLIDPDENKEFEAFEFKKPVRPVS | 4.02 |
| QLIDPDENKEKEAFEFKKPVRPVS | 4.56 |
| QLIDPDENKEPEAFEFKKPVRPVS | 4.49 |
| QLIDPDENKEWEAFEFKKPVRPVS | 4.02 |
| QLIDPDENKEEEAFEFKKPVRPVS | 4.22 |
| QLIDPDENKELEAFEFKKPVRPVS | 4.65 |
| QLIDPDENKESEAFEFKKPVRPVS | 4.22 |
| QLIDPDENKEIEAFEFKKPVRPVS | 4.53 |
| QLIDPDENKEDEAFEFKKPVRPVS | 4.68 |
| QLIDPDENKETEAFEFKKPVRPVS | 4.99 |
| QLIDPDENKENEAFDFKKPVRPVS | 3.77 |
| QLIDPDENKENEAFFFKKPVRPVS | 3.41 |
| QLIDPDENKENEAFRFKKPVRPVS | 2.37 |
| QLIDPDENKENEAFAFKKPVRPVS | 4.01 |
| QLIDPDENKENEAFSFKKPVRPVS | 4 |
| QLIDPDENKENEAFLFKKPVRPVS | 3.36 |
| QLIDPDENKENEAFQFKKPVRPVS | 4.08 |
| QLIDPDENKENEAFWFKKPVRPVS | 3.54 |

| Variant | protein stability index |
| --- | --- |
| QLIDPDENKENEAFIFKKPVRPVS | 3.7 |
| QLIDPDENKENEAFGFKKPVRPVS | 2.89 |
| QLIDPDENKENEAFYFKKPVRPVS | 3.02 |
| QLIDPDENKENEAFPFKKPVRPVS | 4.16 |
| QLIDPDENKENEAFHFKKPVRPVS | 3.57 |
| QLIDPDENKENEAFKFKKPVRPVS | 4.3 |
| QLIDPDENKENEAFNFKKPVRPVS | 3.13 |
| QLIDPDENKENEAFMFKKPVRPVS | 4.37 |
| QLIDPDENKENEAFVFKKPVRPVS | 3.36 |
| QLIDPDENKENEAFTFKKPVRPVS | 3.92 |
| QLIDPDENKENEAPEFKKPVRPVS | 4.92 |
| QLIDPDENKENEASEFKKPVRPVS | 4.5 |
| QLIDPDENKENEAYEFKKPVRPVS | 4.12 |
| QLIDPDENKENEALEFKKPVRPVS | 4.21 |
| QLIDPDENKENEAHEFKKPVRPVS | 4.42 |
| QLIDPDENKENEAAEFKKPVRPVS | 4.68 |
| QLIDPDENKENEAIEFKKPVRPVS | 4.04 |
| QLIDPDENKENEAGEFKKPVRPVS | 4.53 |
| QLIDPDENKENEAVEFKKPVRPVS | 4.55 |
| QLIDPDENKENEAWEFKKPVRPVS | 3.2 |
| QLIDPDENKENEACEFKKPVRPVS | 4.55 |
| QLIDPDENKENEAREFKKPVRPVS | 3.79 |
| QLIDPDENKENEATEFKKPVRPVS | 3.73 |
| QLIDPDENKENEAEEFKKPVRPVS | 4.78 |

| Variant | protein stability index |
| --- | --- |
| QLIDPDENKENEAMEFKKPVRPVS | 3.8 |
| QLIDPDENKENEANEFKKPVRPVS | 3.98 |
| QLIDPDENKENEAQEFKKPVRPVS | 3.94 |
| QLIDPDENKENEAKEFKKPVRPVS | 5 |
| QLIDPDENKENEADEFKKPVRPVS | 5.04 |
| QLIDPWENKENEAFEFKKPVRPVS | 3.59 |
| QLIDPYENKENEAFEFKKPVRPVS | 4.02 |
| QLIDPDENKENEKFEFKKPVRPVS | 3.63 |
| QLIDPDENKENEYFEFKKPVRPVS | 3.99 |
| QLIDPDENKENEGFEFKKPVRPVS | 3.71 |
| QLIDPDENKENEWFEFKKPVRPVS | 3.02 |
| QLIDPDENKENEHFEFKKPVRPVS | 3.26 |
| QLIDPDENKENENFEFKKPVRPVS | 3.77 |
| QLIDPDENKENEPFEFKKPVRPVS | 4.25 |
| QLIDPDENKENEIFEFKKPVRPVS | 4.23 |
| QLIDPDENKENETFEFKKPVRPVS | 3.9 |
| QLIDPDENKENERFEFKKPVRPVS | 3.24 |
| QLIDPDENKENEEFEFKKPVRPVS | 3.57 |
| QLIDPDENKENECFEFKKPVRPVS | 3.52 |
| QLIDPDENKENEQFEFKKPVRPVS | 4.02 |
| QLIDPDENKENELFEFKKPVRPVS | 3.73 |
| QLIDPDENKENESFEFKKPVRPVS | 3.85 |
| QLIDPDENKENEFFEFKKPVRPVS | 3.02 |
| QLIDPDENKENEDFEFKKPVRPVS | 4.34 |

| Variant | protein stability index |
| --- | --- |
| QLIDPDENKENEVFEFKKPVRPVS | 2.88 |
| QLIDPDENKENEMFEFKKPVRPVS | 4.11 |
| QLIDPDENKCNEAFEFKKPVRPVS | 3.84 |
| QLIDPDENKMNEAFEFKKPVRPVS | 3.71 |
| QLIDPDENKWNEAFEFKKPVRPVS | 4.02 |
| QLIDPDENKTNEAFEFKKPVRPVS | 4.3 |
| QLIDPDENKSNEAFEFKKPVRPVS | 4.2 |
| QLIDPDENKLNEAFEFKKPVRPVS | 3.97 |
| QLIDPDENKYNEAFEFKKPVRPVS | 4.78 |
| QLIDPDENKNNEAFEFKKPVRPVS | 3.78 |
| QLIDPDENKRNEAFEFKKPVRPVS | 4.43 |
| QLIDPDENKINEAFEFKKPVRPVS | 4.13 |
| QLIDPDENKVNEAFEFKKPVRPVS | 3.36 |
| QLIDPDENKFNEAFEFKKPVRPVS | 3.12 |
| QLIDPDENKKNEAFEFKKPVRPVS | 4.35 |
| QLIDPDENKDNEAFEFKKPVRPVS | 3.98 |
| QLIDPDENKANEAFEFKKPVRPVS | 4.25 |
| QLIDPDENKPNEAFEFKKPVRPVS | 3.1 |
| QLIDPDENKQNEAFEFKKPVRPVS | 4.29 |
| QLIDPDENKGNEAFEFKKPVRPVS | 4.33 |
| QLIDPDEEKENEAFEFKKPVRPVS | 3.95 |
| QLIDPDERKENEAFEFKKPVRPVS | 4.86 |
| QLIDPDEIKENEAFEFKKPVRPVS | 4.7 |
| QLIDPDEHKENEAFEFKKPVRPVS | 4.59 |

| Variant | protein stability index |
| --- | --- |
| QLIDPDEFKENEAFEFKKPVRPVS | 4.08 |
| QLIDPDEMKENEAFEFKKPVRPVS | 4.09 |
| QLIDPDEVKENEAFEFKKPVRPVS | 4.94 |
| QLIDPDEGKENEAFEFKKPVRPVS | 5.06 |
| QLIDPDESKENEAFEFKKPVRPVS | 4.05 |
| QLIDPDEPKENEAFEFKKPVRPVS | 4.28 |
| QLIDPDEAKENEAFEFKKPVRPVS | 4.31 |
| QLIDPDEQKENEAFEFKKPVRPVS | 4.95 |
| QLIDPDEDKENEAFEFKKPVRPVS | 4.28 |
| QLIDPDELKENEAFEFKKPVRPVS | 4.52 |
| QLIDPDECKENEAFEFKKPVRPVS | 4.45 |
| QLIDPDEYKENEAFEFKKPVRPVS | 3.59 |
| QLIDPDETKENEAFEFKKPVRPVS | 4.61 |
| QLIDPDEKKENEAFEFKKPVRPVS | 4.5 |
| QLIDPDNNKENEAFEFKKPVRPVS | 3.42 |
| QLIDPDANKENEAFEFKKPVRPVS | 4.25 |
| QLIDPDQNKENEAFEFKKPVRPVS | 3.58 |
| QLIDPDINKENEAFEFKKPVRPVS | 4.06 |
| QLIDPDCNKENEAFEFKKPVRPVS | 4 |
| QLIDPDVNKENEAFEFKKPVRPVS | 4.11 |
| QLIDPDSNKENEAFEFKKPVRPVS | 3.37 |
| QLIDPDPNKENEAFEFKKPVRPVS | 4.68 |
| QLIDPDHNKENEAFEFKKPVRPVS | 3.94 |
| QLIDPDGNKENEAFEFKKPVRPVS | 3.02 |

| Variant | protein stability index |
| --- | --- |
| QLIDPDWNKENEAFEFKKPVRPVS | 3.3 |
| QLIDPDTNKENEAFEFKKPVRPVS | 4.15 |
| QLIDPDYNKENEAFEFKKPVRPVS | 3.45 |
| QLIDPDLNKENEAFEFKKPVRPVS | 3.33 |
| QLIDPDKNKENEAFEFKKPVRPVS | 4.59 |
| QLIDPDRNKENEAFEFKKPVRPVS | 3.92 |
| QLIDPDFNKENEAFEFKKPVRPVS | 3.63 |
| QLIDPDDNKENEAFEFKKPVRPVS | 3.97 |
| QLIDPDMNKENEAFEFKKPVRPVS | 3.95 |
| QLIDPDENKENEAFESKKPVRPVS | 4.21 |
| QLIDPDENKENEAFEQKKPVRPVS | 3.73 |
| QLIDPDENKENEAFEMKKPVRPVS | 3.73 |
| QLIDPDENKENEAFEAKKPVRPVS | 4.03 |
| QLIDPDENKENEAFEHKKPVRPVS | 4.56 |
| QLIDPDENKENEAFEEKKPVRPVS | 4.18 |
| QLIDPDENKENEAFENKKPVRPVS | 4.08 |
| QLIDPDENKENEAFEIKKPVRPVS | 3.35 |
| QLIDPDENKENEAFELKKPVRPVS | 4.56 |
| QLIDPDENKENEAFEKKKPVRPVS | 3.99 |
| QLIDPDENKENEAFEDKKPVRPVS | 4.46 |
| QLIDPDENKENEAFEYKKPVRPVS | 3.58 |
| QLIDPDENKENEAFEWKKPVRPVS | 4.33 |
| QLIDPDENKENEAFEPKKPVRPVS | 3.83 |
| QLIDPDENKENEAFEVKKPVRPVS | 4.39 |

| Variant | protein stability index |
| --- | --- |
| QLIDPDENKENEAFEGKKPVRPVS | 3.76 |
| QLIDPDENKENEAFECKKPVRPVS | 4.6 |
| QLIDPDENKENEAFERKKPVRPVS | 4.53 |
| QLIDPDENKENEAFETKKPVRPVS | 4.48 |
| QLIDPDENEENEAFEFKKPVRPVS | 4.62 |
| QLIDPDENMENEAFEFKKPVRPVS | 4.09 |
| QLIDPDENNENEAFEFKKPVRPVS | 4.65 |
| QLIDPDENQENEAFEFKKPVRPVS | 4.74 |
| QLIDPDENRENEAFEFKKPVRPVS | 4.21 |
| QLIDPDENTENEAFEFKKPVRPVS | 4 |
| QLIDPDENHENEAFEFKKPVRPVS | 4.18 |
| QLIDPDENLENEAFEFKKPVRPVS | 3.51 |
| QLIDPDENGENEAFEFKKPVRPVS | 4.2 |
| QLIDPDENFENEAFEFKKPVRPVS | 4.04 |
| QLIDPDENPENEAFEFKKPVRPVS | 4.62 |
| QLIDPDENVENEAFEFKKPVRPVS | 4.83 |
| QLIDPDENCENEAFEFKKPVRPVS | 4.54 |
| QLIDPDENIENEAFEFKKPVRPVS | 3.89 |
| QLIDPDENYENEAFEFKKPVRPVS | 5.01 |
| QLIDPDENDENEAFEFKKPVRPVS | 4.97 |
| QLIDPDENAENEAFEFKKPVRPVS | 4.37 |
| QLIDPDENSENEAFEFKKPVRPVS | 4.39 |
| QLIDPDENWENEAFEFKKPVRPVS | 3.82 |
| QLIDPDENKENFAFEFKKPVRPVS | 2.87 |

| Variant | protein stability index |
| --- | --- |
| QLIDPDENKENHAFEFKKPVRPVS | 3.21 |
| QLIDPDENKENIAFEFKKPVRPVS | 3.34 |
| QLIDPDENKENNAFEFKKPVRPVS | 3.27 |
| QLIDPDENKENAAFEFKKPVRPVS | 3.34 |
| QLIDPDENKENRAFEFKKPVRPVS | 3.1 |
| QLIDPDENKENMAFEFKKPVRPVS | 2.78 |
| QLIDPDENKENTAFEFKKPVRPVS | 3.94 |
| QLIDPDENKENCAFEFKKPVRPVS | 3.55 |
| QLIDPDENKENGAFEFKKPVRPVS | 4.61 |
| QLIDPDENKENLAFEFKKPVRPVS | 3.56 |
| QLIDPDENKENQAFEFKKPVRPVS | 3.85 |
| QLIDPDENKENSAFEFKKPVRPVS | 4.16 |
| QLIDPDENKENKAFEFKKPVRPVS | 3.84 |
| QLIDPDENKENYAFEFKKPVRPVS | 3.38 |
| QLIDPDENKENPAFEFKKPVRPVS | 4.17 |
| QLIDPDENKENVAFEFKKPVRPVS | 3.36 |
| QLIDPDENKENWAFEFKKPVRPVS | 3.19 |
| QLIDPDENKENEAFEFEKPVRPVS | 3.46 |
| QLIDPDENKENEAFEFAKPVRPVS | 4.44 |
| QLIDPDENKENEAFEFCKPVRPVS | 2.78 |
